Where “and” joins values, the source holds several entries; their conditions need not be identical. Equal values may be shown once. Entries after “also recorded” stand apart in the source; their conditions may differ. Where no end group is shown, it is not given here. [ ]: non-standard residue; d: D form. 14C‑Gly = 14C labelled glycine
What was measured:
SARS-CoV-2 = experiment: Antiviral assay, SARS-CoV-2 replication in Calu3 2B4 cells (RT-qPCR); format: cell-based; conditions: 24 h
TMPRSS2 [1] = target: T1, TMPRSS2 (Homo sapiens, UniProt O15393); experiment: Cellular TMPRSS2 inhibition assay in Caco-2 cells; format: cell-based; set-up: using Caco-2 and Calu3 cells, both of which express surface TMPRSS2; endogenous in cells; host or cells: Caco-2 cells
Procedure: Caco-2 cells (1×10^5 per well) were incubated in 96 well plates with 0 to 50 μg/ml of the indicated peptide in the presence of a TMPRSS2 substrate (Boc-Leu-Gly-Arg-AMC) in 50 mM Tris-HCl, pH 7.4. Substrate conversion was monitored in a fluorescence plate reader for 2 hours and inhibition of enzyme activity was expressed relative to a solvent control.
(§1) TMPRSS2 inhibition assays. Peptides (0-50 μg/ml) were tested for their inhibitory activities against TMPRSS2 in cellular assays using Vero E6 cells, Caco-2 cells, or Calu-3 cells using standard conditions. TMPRSS2 activity was assayed in real time for 120 min by monitoring the cleavage of the TMPRSS2 substrate, Boc-Leu-Gly-Arg-AMC. Following the 2 h enzyme assay, cells were evaluated for viability using the CellTiter-Glo cellular toxicity assay.

TMPRSS2 [2] = target: T1, TMPRSS2; experiment: Cellular TMPRSS2 inhibition assay in Calu3 cells; format: cell-based; set-up: endogenous in cells; host or cells: Calu3 (Calu-3) cells; conditions: Calu3 cells
Procedure: as §1

[3] = Biodistribution of 14C-radiolabeled Peptide 1 in female rats; format: in vivo, SD rats
Procedure: Biodistribution [^14C]-radiolabeled Peptide 1 (SEQ ID NO. 1) in female rats: Five SD rats (195 and 200 g b.w.) with jugular vein catheters (JVC) were each injected with 200 μL of 5 mg/mL Peptide 1 (SEQ ID NO. 1) in saline containing ˜4 million CPM of [^14C]-Peptide 1. The ^14C-Peptide 1 (SEQ ID NO. 1) was created by substituting the natural glycine residue on position 1 of the cyclic peptide with a ^14C labeled glycine. The JVC line was cleaned with 70% isopropyl alcohol, and the line plug was removed. A new 25 G blunt needle with a 1 mL syringe containing injectable solutions was used for each injection. The JVC line was first cleared with 100 μL saline, followed by the Peptide 1 (SEQ ID NO. 1) solution, then cleared with an additional 100 μL of saline. Tissues and organs were harvested into separated vials and weighed. Small organs such as lymph nodes, kidneys, and heart/lungs were processed whole. Large organs (e.g., liver, muscles, subcutaneous fat pads) were sampled from representative areas or those of interest (e.g., subcutis at the injection site). Organs were then dissolved in 2 mL Solvable™ (Perkin Elmer 6NE9100) for up to 1 g of tissue. For a large section of skin and other organs, 4 or 6 mL were added. Vials were incubated in a 60° C. water bath for 18-22 hours, then removed and allowed to cool to room temperature. […]

TMPRSS2 [4] = target: TMPRSS2 (UniProt O15393 1-492, limits assumed); experiment: cell-based or functional assay
Sequence of TMPRSS2 (UniProt O15393 1-492, limits assumed) (O15393 whole entry): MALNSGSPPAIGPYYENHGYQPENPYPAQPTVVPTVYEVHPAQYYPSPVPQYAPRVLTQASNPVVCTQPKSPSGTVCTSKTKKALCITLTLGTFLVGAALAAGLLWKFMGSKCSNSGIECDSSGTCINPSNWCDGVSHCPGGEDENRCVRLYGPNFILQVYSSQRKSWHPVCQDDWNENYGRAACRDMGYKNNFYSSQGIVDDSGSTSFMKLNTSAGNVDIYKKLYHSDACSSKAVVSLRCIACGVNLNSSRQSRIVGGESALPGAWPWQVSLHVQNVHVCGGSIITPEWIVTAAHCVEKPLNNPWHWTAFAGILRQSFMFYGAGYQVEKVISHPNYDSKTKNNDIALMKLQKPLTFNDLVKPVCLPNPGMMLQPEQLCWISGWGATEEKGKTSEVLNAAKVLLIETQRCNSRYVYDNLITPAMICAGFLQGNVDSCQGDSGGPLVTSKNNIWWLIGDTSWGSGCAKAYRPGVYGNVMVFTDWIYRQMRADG

T1 sequence (O15393 whole entry): as above

With “Peptide 5: naturally occurring cyclic peptide (theta defensin), SEQ ID NO. 5, FIG. 1B (GICRCLCRRGVCRCICVL; not fully specified (bridges); also: cyclic; listed as Macaca mulatta)” the “SARS-CoV-2 viral replication (N gene expression relative to ACTB)” value (SARS-CoV-2) was “no apparent antiviral effect; also recorded: inactive” and the TMPRSS2 inhibitory activity (TMPRSS2 [1]; highest concentration tested (50 μg/mL), cell line not stated) was “no TMPRSS2 inhibitory activity”.

In the case of “Peptide 3: naturally occurring cyclic peptide (theta defensin), SEQ ID NO. 3, FIG. 1A (GFCRCICTRGFCRCICTR; cyclic; listed as Macaca mulatta)”, the “inhibition of TMPRSS2” value (TMPRSS2 [2]) is reported as “similarly inhibited TMPRSS2” and the “inhibition of TMPRSS2” value (TMPRSS2 [1]; Caco-2 cells, 0 to 50 μg/ml, FIG. 10) is reported as “higher than Peptide 1”.

For “^14C-Peptide 1: created by substituting the natural glycine residue on position 1 of the cyclic peptide with a 14C labeled glycine ([14C‑Gly]FCRCLCRRGVCRCICTR; not fully specified (bridges); also: cyclic; listed as Macaca mulatta)”, the “tissue distribution (density of 14C)” value ([3]; 1 h after i.v. administration) was “highest density measured in the liver, followed by the kidney” and the “14C counts recovered in urine” value ([3]; single i.v. dose equivalent to 5 mg/kg, 24 h) was 7% and 8.5%.

For “Peptide 2: naturally occurring cyclic peptide (theta defensin), SEQ ID NO. 2, FIG. 1A (GVCRCLCRRGVCRCLCRR; cyclic; listed as Macaca mulatta)”, the “SARS-CoV-2 viral replication (N gene expression relative to ACTB)” value (SARS-CoV-2) was “highly effective in blocking viral replication”.

B1: Peptide 1 (SEQ ID NO. 1) (peptide)
peptide: cyclo(GFCRCLCRRGVCRCICTR)
modifications: disulfide (positions not given here); also: three disulfide bonds, pairing not given here
For B1, the “IC50 of enzyme inhibition (cleavage of Boc-Leu-Gly-Arg-AMC by cells)” value (TMPRSS2 [4]) was 6.5 to 8 µg/mL.
